# B1: BC: EloB (1-118) / EloC (17-112) heterodimer (other)
# chain 1: MGDVFLMIRRHKTTIFTDAKESSTVFELKRIVEGILKRPPDEQRLYKDDQLLDDGKTLGECGFTSQTARPQAPATVGLAFRADDTFEALCIEPFSSPPELPDVMKPQDSGSSANEQAVQENLYFQ
# chain 2: MGYVKLISSDGHEFIVKREHALTSGTIKAMLSGPGQFAENETNEVNFREIPSHVLSKVCMYFTYKVRYTNSSTEIPEFPIAPEIALELLMAANFLDC
# notes: also called EloBC; EloBC heterodimer
# B2: Cul5(N), human Cullin5 residues 2-384 (V341R, L345D) after removal of GST (other)
# chain: GPMHMGGSTSNLLKNKGSLQFEDKWDFMRPIVLKLLRQESVTKQQWFDLFSDVHAVCLWDDKGPAKIHQALKEDILEFIKQAQARVLSHQDDTALLKAYIVEWRKFFTQCDILPKPFCQLEITLMGKQGSNKKSNVEDSIVRKLMLDTWNESIFSNIKNRLQDSAMKLVHAERLGEAFDSQLVIGVRESYVNLCSNPEDKLQIYRDNFEKAYLDSTERFYRTQAPSYLQQNGVQNYMKYADAKLKEEEKRALRYLETRRECNSVEALMECCVNALVTSFKETILAECQGMIKRNETEKLHLMFSLMDKVPNGIEPMLKDLEEHIISAGLADMVAAAETITTDSEKYREQLDTLFNRFSKLVKEAFQDDPRFLTARDKAYKAVVNDATIFK
# notes: also called untagged Cul5(N)
# What was measured:
# [1] = biological target: the molecule itself; assay: sedimentation velocity AUC; self-association
# [2] = biological target: T1, BCvif95-155: EloB (1-118) / EloC (17-112) / Vif (95-155) (human; HIV-1 HXB2, UniProt P69723 95-155); assay: ITC, 30 C
# T1 construct: range 95-155
# [3] = biological target: T2, EloB(1-104)/EloC(17-112)/Vif(102-173) (human; HIV-1 (group M, subtype B), UniProt Q15370 2-104; Q15369 18-112; P31820 102-173); assay: ITC, 30 C
# [4] = biological target: T3, EloB(1-118)/EloC(17-112)/Vif(95-173) (human; HIV-1 (group M, subtype B), UniProt Q15370 2-118; Q15369 18-112; P31820 95-173); assay: ITC, 30 C
# [5] = biological target: T4, BCvif95-160: EloB (1-118) / EloC (17-112) / Vif (95-160) (human; HIV-1 HXB2, UniProt P69723 95-160); assay: ITC, 30 C
# T4 construct: range 95-160
# [6] = biological target: T5, BCvif95-192: EloB (1-118) / EloC (17-112) / Vif (95-192) (human; HIV-1 HXB2, UniProt P69723 95-192)
# [7] = biological target: B1
# [8] = biological target: T2, EloB(1-104)/EloC(17-112)/Vif(102-173)
# [9] = biological target: T3, EloB(1-118)/EloC(17-112)/Vif(95-173)
# [10] = biological target: T4, BCvif95-160: EloB (1-118) / EloC …
# [11] = biological target: T6, BCvifVF: EloB (1-118) / EloC (17-112) / vif (95-192) (A123V, L124F) (human; HIV-1 HXB2, UniProt P69723 95-192)
# [12] = biological target: T7, BCvifSS: EloB (1-118) / EloC (17-112) / vif (95-192) (A123S, L124S) (human; HIV-1 HXB2, UniProt P69723 95-192)
# [13] = biological target: T7, BCvifSS: EloB (1-118) / EloC (17-112) / …; assay: ITC, 30 C; A123S/L124S mutant
# [14] = biological target: T6, BCvifVF: EloB (1-118) / EloC (17-112) / …; assay: ITC, 30 C; A123V/L124F mutant
# [15] = biological target: T5, BCvif95-192: EloB (1-118) / EloC …; assay: ITC, 30 C; Cul5(N) titrated into the complex
# [16] = biological target: B1; assay: ITC, 30 C; untagged Cul5(N) titrated into EloBC
# [17] = biological target: T5, BCvif95-192: EloB (1-118) / EloC …; assay: ITC, opposite injection order; BCvif95-192 titrated into Cul5(N)
binder,measurement,setting,value
B1,binding result,[1],"no binding (tested: 0.19, 0.37, and 1.88 mg ml^-1)"
B2,Kd,[2],213 nM
same,Kd,[3],288 nM
same,Kd,[4],337 nM
same,Kd,[5],285 nM
same,ΔH,[6],-5210
same,ΔS,[6],12.6
same,N,[7],0.924
same,ΔH,[7],-9200
same,ΔS,[7],-6.39
same,N,[8],0.826
same,ΔH,[8],-4950
same,ΔS,[8],13.6
same,N,[9],0.869
same,ΔH,[9],-5630
same,ΔS,[9],11.1
same,ΔH,[10],-5090
same,ΔS,[10],13
same,ΔH,[11],-4550
same,ΔS,[11],13.1
same,ΔH,[12],-7380
same,ΔS,[12],4.97
same,Kd,[13],397 nM
same,Kd,[14],847 nM
same,Kd,[15],327 nM
same,Kd,[16],6350 nM
same,Kd,[17],420 nM

# Reference: patent US20120271036A1 (UNIVERSITY OF ROCHESTER, published 2012)
